Source: US20250171562A1 (ALK ABELL, published 2025)

Biological target: T1, recombinant human IgE (human, UniProt P01854-1 1-428)
T1 construct: made in-house (ALK); preloaded on immobilised FcεRIα in the displacement ELISA
Experiment: IgE-FcεRIα displacement ELISA
In short: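 sdAbs at pM–μM were incubated 1 h on preformed complexes of 13 ng/ml recombinant human IgE with avi-tag-biotinylated human FcεRIα captured on streptavidin.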

T1 sequence (P01854 other isoform, or with tags, fused parts or gaps): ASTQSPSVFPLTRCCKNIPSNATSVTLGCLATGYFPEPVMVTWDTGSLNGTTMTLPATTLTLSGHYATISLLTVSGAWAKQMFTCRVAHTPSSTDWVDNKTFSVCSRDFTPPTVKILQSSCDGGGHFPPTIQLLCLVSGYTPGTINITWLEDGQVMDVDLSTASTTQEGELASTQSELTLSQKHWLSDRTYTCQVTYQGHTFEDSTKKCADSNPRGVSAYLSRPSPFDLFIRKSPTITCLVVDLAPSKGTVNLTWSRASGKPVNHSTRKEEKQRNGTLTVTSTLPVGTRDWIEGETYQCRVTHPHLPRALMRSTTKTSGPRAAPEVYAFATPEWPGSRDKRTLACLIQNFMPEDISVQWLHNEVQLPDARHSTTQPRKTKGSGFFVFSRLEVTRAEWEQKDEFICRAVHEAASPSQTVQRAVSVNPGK

Row | Max effect [%] | EC50 [nM] | Binder
1 | > 95 |  | NIgG4E1A1(RS) (Fc fusion) chain 1: DVQLQESGGGLVQAGGSLRLSCLASGRTFTTTSGYNMGWFRQAPGKEREFVAGIKWVSGSNRAYAESVKGRFTISRDNAKNTVYLQMNSLKPEDTAVYYCAAATGQSYVPIREYEYVYWGQGTQVTVSRSGPPCPPCPAPEFLGGPSVFLFPPKPKDTLMISRTPEVTCVVVDVSQEDPEVQFNWYVDGVEVHNAKTKPREEQFNSTYRVVSVLTVLHQDWLNGKEYKCKVSNKGLPSSIEKTISKAKGQPREPQVYTLPPCQEEMTKNQVSLWCLVKGFYPSDIAVEWESNGQPENNYKTTPPVLDSDGSFFLYSRLTVDKSRWQEGNVFSCSVMHEALHNHYTQKSLSLSLGK chain 2: EVQLLESGGGLVQPGGSLRLSCAASGFTFGNYDMAWVRQAPGKRPEWVSSIDTGGDITHYADSVKGRFTISRDNAKNTLYLQMNSLRPEDTAVYWCATDEEYALGPNEFDYYGQGTLVTVSSRSGPPCPPCPAPEFLGGPSVFLFPPKPKDTLMISRTPEVTCVVVDVSQEDPEVQFNWYVDGVEVHNAKTKPREEQFNSTYRVVSVLTVLHQDWLNGKEYKCKVSNKGLPSSIEKTISKAKGQPREPQVCTLPPSQEEMTKNQVSLSCAVKGFYPSDIAVEWESNGQPENNYKTTPPVLDSDGSFFLVSRLTVDKSRWQEGNVFSCSVMHEALHNHYTQKSLSLSLGK
2 | > 95 |  | NIgG4E1A1(G4S)3 (Fc fusion) chain 1: DVQLQESGGGLVQAGGSLRLSCLASGRTFTTTSGYNMGWFRQAPGKEREFVAGIKWVSGSNRAYAESVKGRFTISRDNAKNTVYLQMNSLKPEDTAVYYCAAATGQSYVPIREYEYVYWGQGTQVTVSGGGGSGGGGSGGGGSGPPCPPCPAPEFLGGPSVFLFPPKPKDTLMISRTPEVTCVVVDVSQEDPEVQFNWYVDGVEVHNAKTKPREEQFNSTYRVVSVLTVLHQDWLNGKEYKCKVSNKGLPSSIEKTISKAKGQPREPQVYTLPPCQEEMTKNQVSLWCLVKGFYPSDIAVEWESNGQPENNYKTTPPVLDSDGSFFLYSRLTVDKSRWQEGNVFSCSVMHEALHNHYTQKSLSLSLGK chain 2: EVQLLESGGGLVQPGGSLRLSCAASGFTFGNYDMAWVRQAPGKRPEWVSSIDTGGDITHYADSVKGRFTISRDNAKNTLYLQMNSLRPEDTAVYWCATDEEYALGPNEFDYYGQGTLVTVSSGGGGSGGGGSGGGGSGPPCPPCPAPEFLGGPSVFLFPPKPKDTLMISRTPEVTCVVVDVSQEDPEVQFNWYVDGVEVHNAKTKPREEQFNSTYRVVSVLTVLHQDWLNGKEYKCKVSNKGLPSSIEKTISKAKGQPREPQVCTLPPSQEEMTKNQVSLSCAVKGFYPSDIAVEWESNGQPENNYKTTPPVLDSDGSFFLVSRLTVDKSRWQEGNVFSCSVMHEALHNHYTQKSLSLSLGK

The next lines start with the binder.

Row | Binder | Max effect [%] | EC50 [nM]
3 | NIgG4E1A1(G4S)1 (Fc fusion) chain 1: DVQLQESGGGLVQAGGSLRLSCLASGRTFTTTSGYNMGWFRQAPGKEREFVAGIKWVSGSNRAYAESVKGRFTISRDNAKNTVYLQMNSLKPEDTAVYYCAAATGQSYVPIREYEYVYWGQGTQVTVSGGGGSGPPCPPCPAPEFLGGPSVFLFPPKPKDTLMISRTPEVTCVVVDVSQEDPEVQFNWYVDGVEVHNAKTKPREEQFNSTYRVVSVLTVLHQDWLNGKEYKCKVSNKGLPSSIEKTISKAKGQPREPQVYTLPPCQEEMTKNQVSLWCLVKGFYPSDIAVEWESNGQPENNYKTTPPVLDSDGSFFLYSRLTVDKSRWQEGNVFSCSVMHEALHNHYTQKSLSLSLGK chain 2: EVQLLESGGGLVQPGGSLRLSCAASGFTFGNYDMAWVRQAPGKRPEWVSSIDTGGDITHYADSVKGRFTISRDNAKNTLYLQMNSLRPEDTAVYWCATDEEYALGPNEFDYYGQGTLVTVSSGGGGSGPPCPPCPAPEFLGGPSVFLFPPKPKDTLMISRTPEVTCVVVDVSQEDPEVQFNWYVDGVEVHNAKTKPREEQFNSTYRVVSVLTVLHQDWLNGKEYKCKVSNKGLPSSIEKTISKAKGQPREPQVCTLPPSQEEMTKNQVSLSCAVKGFYPSDIAVEWESNGQPENNYKTTPPVLDSDGSFFLVSRLTVDKSRWQEGNVFSCSVMHEALHNHYTQKSLSLSLGK | > 95 | 
4 | CIgG4E1A1(G4S)3 (Fc fusion) chain 1: GPPCPPCPAPEFLGGPSVFLFPPKPKDTLMISRTPEVTCVVVDVSQEDPEVQFNWYVDGVEVHNAKTKPREEQFNSTYRVVSVLTVLHQDWLNGKEYKCKVSNKGLPSSIEKTISKAKGQPREPQVYTLPPCQEEMTKNQVSLWCLVKGFYPSDIAVEWESNGQPENNYKTTPPVLDSDGSFFLYSRLTVDKSRWQEGNVFSCSVMHEALHNHYTQKSLSLSLGKGGGGSGGGGSGGGGSDVQLQESGGGLVQAGGSLRLSCLASGRTFTTTSGYNMGWFRQAPGKEREFVAGIKWVSGSNRAYAESVKGRFTISRDNAKNTVYLQMNSLKPEDTAVYYCAAATGQSYVPIREYEYVYWGQGTQVTVS chain 2: GPPCPPCPAPEFLGGPSVFLFPPKPKDTLMISRTPEVTCVVVDVSQEDPEVQFNWYVDGVEVHNAKTKPREEQFNSTYRVVSVLTVLHQDWLNGKEYKCKVSNKGLPSSIEKTISKAKGQPREPQVCTLPPSQEEMTKNQVSLSCAVKGFYPSDIAVEWESNGQPENNYKTTPPVLDSDGSFFLVSRLTVDKSRWQEGNVFSCSVMHEALHNHYTQKSLSLSLGKGGGGSGGGGSGGGGSEVQLLESGGGLVQPGGSLRLSCAASGFTFGNYDMAWVRQAPGKRPEWVSSIDTGGDITHYADSVKGRFTISRDNAKNTLYLQMNSLRPEDTAVYWCATDEEYALGPNEFDYYGQGTLVTVSS | > 95 | 9
5 | NIgG4E1A1(G4S)2 (Fc fusion) chain 1: DVQLQESGGGLVQAGGSLRLSCLASGRTFTTTSGYNMGWFRQAPGKEREFVAGIKWVSGSNRAYAESVKGRFTISRDNAKNTVYLQMNSLKPEDTAVYYCAAATGQSYVPIREYEYVYWGQGTQVTVSGGGGSGGGGSGPPCPPCPAPEFLGGPSVFLFPPKPKDTLMISRTPEVTCVVVDVSQEDPEVQFNWYVDGVEVHNAKTKPREEQFNSTYRVVSVLTVLHQDWLNGKEYKCKVSNKGLPSSIEKTISKAKGQPREPQVYTLPPCQEEMTKNQVSLWCLVKGFYPSDIAVEWESNGQPENNYKTTPPVLDSDGSFFLYSRLTVDKSRWQEGNVFSCSVMHEALHNHYTQKSLSLSLGK chain 2: EVQLLESGGGLVQPGGSLRLSCAASGFTFGNYDMAWVRQAPGKRPEWVSSIDTGGDITHYADSVKGRFTISRDNAKNTLYLQMNSLRPEDTAVYWCATDEEYALGPNEFDYYGQGTLVTVSSGGGGSGGGGSGPPCPPCPAPEFLGGPSVFLFPPKPKDTLMISRTPEVTCVVVDVSQEDPEVQFNWYVDGVEVHNAKTKPREEQFNSTYRVVSVLTVLHQDWLNGKEYKCKVSNKGLPSSIEKTISKAKGQPREPQVCTLPPSQEEMTKNQVSLSCAVKGFYPSDIAVEWESNGQPENNYKTTPPVLDSDGSFFLVSRLTVDKSRWQEGNVFSCSVMHEALHNHYTQKSLSLSLGK | > 95 | 
6 | CIgG4E1A1(G4S)2 (Fc fusion) chain 1: GPPCPPCPAPEFLGGPSVFLFPPKPKDTLMISRTPEVTCVVVDVSQEDPEVQFNWYVDGVEVHNAKTKPREEQFNSTYRVVSVLTVLHQDWLNGKEYKCKVSNKGLPSSIEKTISKAKGQPREPQVYTLPPCQEEMTKNQVSLWCLVKGFYPSDIAVEWESNGQPENNYKTTPPVLDSDGSFFLYSRLTVDKSRWQEGNVFSCSVMHEALHNHYTQKSLSLSLGKGGGGSGGGGSDVQLQESGGGLVQAGGSLRLSCLASGRTFTTTSGYNMGWFRQAPGKEREFVAGIKWVSGSNRAYAESVKGRFTISRDNAKNTVYLQMNSLKPEDTAVYYCAAATGQSYVPIREYEYVYWGQGTQVTVS chain 2: GPPCPPCPAPEFLGGPSVFLFPPKPKDTLMISRTPEVTCVVVDVSQEDPEVQFNWYVDGVEVHNAKTKPREEQFNSTYRVVSVLTVLHQDWLNGKEYKCKVSNKGLPSSIEKTISKAKGQPREPQVCTLPPSQEEMTKNQVSLSCAVKGFYPSDIAVEWESNGQPENNYKTTPPVLDSDGSFFLVSRLTVDKSRWQEGNVFSCSVMHEALHNHYTQKSLSLSLGKGGGGSGGGGSEVQLLESGGGLVQPGGSLRLSCAASGFTFGNYDMAWVRQAPGKRPEWVSSIDTGGDITHYADSVKGRFTISRDNAKNTLYLQMNSLRPEDTAVYWCATDEEYALGPNEFDYYGQGTLVTVSS | > 95 | 10
7 | CIgG4E1A1(RS) (Fc fusion) chain 1: GPPCPPCPAPEFLGGPSVFLFPPKPKDTLMISRTPEVTCVVVDVSQEDPEVQFNWYVDGVEVHNAKTKPREEQFNSTYRVVSVLTVLHQDWLNGKEYKCKVSNKGLPSSIEKTISKAKGQPREPQVYTLPPCQEEMTKNQVSLWCLVKGFYPSDIAVEWESNGQPENNYKTTPPVLDSDGSFFLYSRLTVDKSRWQEGNVFSCSVMHEALHNHYTQKSLSLSLGKRSDVQLQESGGGLVQAGGSLRLSCLASGRTFTTTSGYNMGWFRQAPGKEREFVAGIKWVSGSNRAYAESVKGRFTISRDNAKNTVYLQMNSLKPEDTAVYYCAAATGQSYVPIREYEYVYWGQGTQVTVS chain 2: GPPCPPCPAPEFLGGPSVFLFPPKPKDTLMISRTPEVTCVVVDVSQEDPEVQFNWYVDGVEVHNAKTKPREEQFNSTYRVVSVLTVLHQDWLNGKEYKCKVSNKGLPSSIEKTISKAKGQPREPQVCTLPPSQEEMTKNQVSLSCAVKGFYPSDIAVEWESNGQPENNYKTTPPVLDSDGSFFLVSRLTVDKSRWQEGNVFSCSVMHEALHNHYTQKSLSLSLGKRSEVQLLESGGGLVQPGGSLRLSCAASGFTFGNYDMAWVRQAPGKRPEWVSSIDTGGDITHYADSVKGRFTISRDNAKNTLYLQMNSLRPEDTAVYWCATDEEYALGPNEFDYYGQGTLVTVSS | 65 | 480
8 | CIgG4E1A1(G4S)1 (Fc fusion) chain 1: GPPCPPCPAPEFLGGPSVFLFPPKPKDTLMISRTPEVTCVVVDVSQEDPEVQFNWYVDGVEVHNAKTKPREEQFNSTYRVVSVLTVLHQDWLNGKEYKCKVSNKGLPSSIEKTISKAKGQPREPQVYTLPPCQEEMTKNQVSLWCLVKGFYPSDIAVEWESNGQPENNYKTTPPVLDSDGSFFLYSRLTVDKSRWQEGNVFSCSVMHEALHNHYTQKSLSLSLGKGGGGSDVQLQESGGGLVQAGGSLRLSCLASGRTFTTTSGYNMGWFRQAPGKEREFVAGIKWVSGSNRAYAESVKGRFTISRDNAKNTVYLQMNSLKPEDTAVYYCAAATGQSYVPIREYEYVYWGQGTQVTVS chain 2: GPPCPPCPAPEFLGGPSVFLFPPKPKDTLMISRTPEVTCVVVDVSQEDPEVQFNWYVDGVEVHNAKTKPREEQFNSTYRVVSVLTVLHQDWLNGKEYKCKVSNKGLPSSIEKTISKAKGQPREPQVCTLPPSQEEMTKNQVSLSCAVKGFYPSDIAVEWESNGQPENNYKTTPPVLDSDGSFFLVSRLTVDKSRWQEGNVFSCSVMHEALHNHYTQKSLSLSLGKGGGGSEVQLLESGGGLVQPGGSLRLSCAASGFTFGNYDMAWVRQAPGKRPEWVSSIDTGGDITHYADSVKGRFTISRDNAKNTLYLQMNSLRPEDTAVYWCATDEEYALGPNEFDYYGQGTLVTVSS | > 95 | 30
